# Test results from article PMC3087862 (Nature structural & molecular biology, 2011).
# Biological target: the molecule itself
# Test: SEC
row,Protein,stoichiometry N
1,"human Hsp90α full-length protein without part of the N-M linker (Hsp90Δ; 1-732, 241-268 deleted) (natural protein) not shown",2
2,human Hsp90α two-domain construct MC (293-732) (domain or fragment) not shown,2
